Where “and” joins values, the source holds several entries; their conditions need not be identical. Identical values can stand only once.
B1: DRA: hexameric protein of Tn3 fibronectin type III domains (SEQ ID NO: 1) binding DR5, joined by glycine-serine linkers (protein)
chain: GAIEVKDVTDTTALITWAKPWVDPPPLWGCELTYGIKDVPGDRTTIDLQQKHTAYSIGNLKPDTEYEVSLICFDPYGMRSKPAKETFTTGGGGSGGGGSGGGGSGAIEVKDVTDTTALITWAKPWVDPPPLWGCELTYGIKDVPGDRTTIDLQQKHTAYSIGNLKPDTEYEVSLICFDPYGMRSKPAKETFTTGGGGSGGGGSGGGGSGAIEVKDVTDTTALITWAKPWVDPPPLWGCELTYGIKDVPGDRTTIDLQQKHTAYSIGNLKPDTEYEVSLICFDPYGMRSKPAKETFTTGGGGSGGGGSGGGGSGAIEVKDVTDTTALITWAKPWVDPPPLWGCELTYGIKDVPGDRTTIDLQQKHTAYSIGNLKPDTEYEVSLICFDPYGMRSKPAKETFTTGGGGSGGGGSGGGGSGAIEVKDVTDTTALITWAKPWVDPPPLWGCELTYGIKDVPGDRTTIDLQQKHTAYSIGNLKPDTEYEVSLICFDPYGMRSKPAKETFTTGGGGSGGGGSGGGGSGAIEVKDVTDTTALITWAKPWVDPPPLWGCELTYGIKDVPGDRTTIDLQQKHTAYSIGNLKPDTEYEVSLICFDPYGMRSKPAKETFTTGGGGSGGGGSGGGGSHHHHHHHH
B2: DRA monomer: single Tn3 type III fibronectin domain engineered to bind DR5 (protein)
chain: GAIEVKDVTDTTALITWAKPWVDPPPLWGCELTYGIKDVPGDRTTIDLQQKHTAYSIGNLKPDTEYEVSLICFDPYGMRSKPAKETFTT

Legend:
[1] = test system: HCT116, HCT15, Colo205, DLD-1, and Lovo; experiment: Single-agent cytotoxicity (MTT) in TRAIL-sensitive CRC cell lines; format: cell-based, human
Method: (§1) For single-agent cytotoxicity evaluation, DRA and ELP-DRA fusion proteins were tested in vitro using a colorimetric formazan assay (MTT) as follows. […] The cells were then treated with 10 μL additional media containing a serial dilution of the drug(s) of interest. All treatments were done in triplicate. […] The inhibition of cell viability was determined using measurements of the absorbance at 490 nm, which is the absorbance maximum of the formazan product. The dose-response curves were generated by plotting inhibition as a function of compound concentration.

CRC247 = experiment: Single-agent cytotoxicity in patient-derived CRC247; format: cell-based, human
Method: as §1

RKO cells [2] = experiment: Single-agent cytotoxicity (MTT) in RKO; format: cell-based, human
Method: as §1

mouse death receptor = mouse death receptor (Mus musculus, UniProt Q9QZM4); details: previous studies; cited from earlier work
HT29 cells = experiment: Single-agent cytotoxicity (MTT) in HT29; format: cell-based, human
Method: as §1

CRC119 = experiment: Single-agent cytotoxicity in patient-derived CRC119; format: cell-based, human; details: CRC119s
Method: as §1

T84 = experiment: Single-agent cytotoxicity (MTT) in T84; format: cell-based, human
Method: as §1

[3] = in vivo; cited from earlier work
CRC12x = experiment: Single-agent cytotoxicity in patient-derived CRC12x; format: cell-based, human
Method: as §1

RKO cells [4] = experiment: Flow cytometry Annexin V apoptosis quantification in RKO; format: cell-based, human; details: for % positive Annexin V+: single replicate, listed as SA
Method: Flow Cytometry for Annexin-V Apoptosis Quantification. Cells were seeded in six-well plates overnight. The next day, cells were treated with the indicated amount of drug(s) or vehicle control (DMSO). Incubation time was 15 h for etoposide or 48 h for DRA alone, or DRA with sensitizers. To prepare samples for flow cytometry, each well of cells was washed twice with ice-cold PBS and resuspended in 1× annexin V binding buffer (10 mM HEPES, 140 mM NaCl, 2.5 mM CaCl2, pH 7.4) BD Biosciences). Allophycocyanin (APC)-conjugated Annexin V was used to measure surface exposure of phosphatidylserine and 7-aminoactinomycin D (7-AAD) was used as a viability probe (BD Biosciences). Cell samples were analyzed at 20,000 counts/sample using BD FACSVantage SE.

Sequence of mouse death receptor (Q9QZM4 53-381): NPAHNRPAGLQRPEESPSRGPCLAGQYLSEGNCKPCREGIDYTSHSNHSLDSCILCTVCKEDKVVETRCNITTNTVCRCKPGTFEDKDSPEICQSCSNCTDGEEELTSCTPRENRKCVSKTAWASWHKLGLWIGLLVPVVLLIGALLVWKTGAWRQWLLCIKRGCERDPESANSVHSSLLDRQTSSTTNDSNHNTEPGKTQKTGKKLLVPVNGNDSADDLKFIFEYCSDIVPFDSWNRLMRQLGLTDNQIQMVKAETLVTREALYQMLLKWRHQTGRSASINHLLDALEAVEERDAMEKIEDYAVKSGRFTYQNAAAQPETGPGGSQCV

Molecule | increase in potency of DRA compared to TRAIL (T/D fold, EC50-TRAIL/EC50-DRA) ([1]; TRAIL-sensitive cell lines) | EC50 ([1]; all tested TRAIL-sensitive cell lines) | cytotoxicity (CRC247) | EC50 (RKO cells [2]) | interaction with mouse death receptor (mouse death receptor) | cytotoxicity (HT29 cells) | EC50 (CRC119) | cytotoxicity (T84) | half-life [3] | EC50 (CRC12x) | Average % positive Annexin V+ (RKO cells [4]; 0.5 pM SA) | % positive Annexin V+ (RKO cells [4]; 0.5 pM SA) | Average % positive Annexin V+ (RKO cells [4]; 1 pM SA) | % positive Annexin V+ (RKO cells [4]; 1 pM SA) | induction of cell death ([1]; sensitive cell lines)
B1 | 70-1700 times | picomolar range | highly resistant | > 100 nM | no interaction | induces cytotoxicity | 0.0261 nM | induces cytotoxicity | approximately 36 min | 0.0098 nM | 4.90% | 5.32% and 5.86% and 3.53% | 6.01% | 6.97% and 5.22% and 5.85% | 
B2 |  |  |  |  |  |  |  |  |  |  |  |  |  |  | do not induce cell death
